IC50 data for one substance are collected here from patent publication US20020150536A1.

The target of assay [1] is αvβ3 integrin (human) (UniProt P06756). Kind of assay: competition ELISA, displacement of biotinylated vitronectin (10 nM) from immobilized αvβ3 (FIG. 4A). Background: ELISA stands for enzyme-linked immunosorbent assay.
The target is the same in assay [2]. Put plainly: competition ELISA, displacement of biotinylated fibrinogen (6 nM) from immobilized αvβ3 (FIG. 4B).

For the substance αvβ3-specific monoclonal antibody LM609, the concentration for half-maximal inhibition (IC50) is 2.7 nM with αvβ3 integrin (human) [1] and 6.3 nM with αvβ3 integrin (human) [2].

The term IC50 denotes the concentration needed to halve the response being measured. Read a low IC50 as greater potency in that assay.
